Experiment [1] deals with Andes virus glycoprotein Gc, wild type (Andes virus (Andes orthohantavirus CHI-7913 isolate)).
Experiment [2] shares this target. This is another data set of the same source.

In experiment [1], Andes virus glycoprotein Gn, wild type yielded a melting temperature (Tm) of (Gn/Gc)4 dissociation of 36.3 ° C. In addition, the melting temperature (Tm) of the temperature-induced Gn/Gc dissociation in experiment [2] was 37.7 ° C.

Source of the values: US11723968B2.
